Measured values as given in paper PMC5739537, “Computationally-driven identification of antibody epitopes” (eLife, 2017).

Target: T1, B7H6 (wild type) (human, UniProt Q68D85)
T1 construct: B7H6, human tumor antigen; complete extracellular and transmembrane domains; The results call it the full-length transmembrane protein, the methods complete extracellular and transmembrane domains; also called WT B7H6; WT Ag; source: HEK-293F, transfected (pPPI4 surface expression vector, polyethyleneimine), on the cell surface
T1 sequence (Q68D85 25-262): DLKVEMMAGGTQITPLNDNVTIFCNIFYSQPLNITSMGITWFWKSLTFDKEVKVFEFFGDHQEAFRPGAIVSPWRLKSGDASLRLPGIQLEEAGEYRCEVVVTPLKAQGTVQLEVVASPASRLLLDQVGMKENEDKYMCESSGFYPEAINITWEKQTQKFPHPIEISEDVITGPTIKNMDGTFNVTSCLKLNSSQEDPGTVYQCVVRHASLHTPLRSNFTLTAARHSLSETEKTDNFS
Test: flow cytometry on cells; HEK-293F cells expressing WT B7H6 or designed variants, 2.5x10^5 cells/well; 100 nM TZ47, PB11 scFv-Fc or NKp30-Ig for 1 hr in PBS + 0.1% BSA; Anti-Mouse-AlexaFluor488 or Anti-Hu-AlexaFluor647 secondary Abs; integrated MFI normalised to NKp30-Ig binding and to WT B7H6; triplicate wells
Settings: one partner purified

| binding result | Binder |
| --- | --- |
| binds | PB11 scFv-Fc (scFv, V domains shown, Used as scFv-Fc in the staining) VH: QVQLVQSGAEVKKPGASVKISCKASGYTLGTYTLHWMRQAPGQRIEWMGWINPGNGYTKYSQRFQGRVTINRDTSATTTYMELSSLRSEDTAVYFCATDRAPVRRAFDIWGQGTMVTVSS VL: QSVLTQPASVSGSPGQSVTISCTGTSSDIGSYKFVSWYQHHPGKAPKLMIYDVTQRPSGVPYRFSGSKSGNTASLTISGLQAEDEADYYCCSYAGDYTYALFGGGTQLTVL |
| binds | TZ47 (antibody, V domains shown, Murine antibody; detected with an anti-mouse AlexaFluor488 secondary antibody) VH: QVQLQQSGAELMKPGASVKLSCKATGYTFTGYWIEWIKQRPGHGLEWIGEILPGTGSTNYNEKFKGKATFTADTSSNTAYMQLSSLTTEDSAIYYCAIPGPMDYWGQGTSVTVSS VL: DIKMTQSPSSMYASLGERVTITCKASQDINSYLSWFQQKPGKSPKTLIYRANRLVDGVPSRFSGSGSGQDYSLTISSLEYEDMGIYYCLQYDEFPYTFGGGTKLEIK |
